Laboratory results: the supplement of paper PMC9112550, “Optimization of the antimicrobial peptide Bac7 by deep mutational scanning” (BMC Biology, 2022)

tested on: Escherichia coli TOP10; test: shrunken log2 fold change of peptide-encoding DNA abundance (4.5 h post-induction vs induction); higher = less antimicrobial activity (less host growth inhibition); conditions: time post-induction: 4.5 h; library: site-saturation at positions 5, 18, 19, 20
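Note: peptides expressed intracellularly from a pBAD plasmid library in pooled LB shake-flask culture, induced with 0.3% L-arabinose, DNA abundance read by NGS, three biological replicates, DESeq2 with apeglm shrinkage.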

| Sequence | shrunken log2 fold change |
| --- | --- |
| RRIRLRPPRLPRPRPRPDIVPRP | -0.0115 |
| RRIRLRPPRLPRPRPRPDKHPRP | -0.971 |
| RRIRLRPPRLPRPRPRPDKMPRP | -0.121 |
| RRIRLRPPRLPRPRPRPDMIPRP | -0.0232 |
| RRIRLRPPRLPRPRPRPDMMPRP | -0.295 |
| RRIRLRPPRLPRPRPRPDNPPRP | -0.231 |
| RRIRLRPPRLPRPRPRPDPGPRP | -0.146 |
| RRIRLRPPRLPRPRPRPDPHPRP | -0.171 |
| RRIRLRPPRLPRPRPRPDPLPRP | 0.172 |
| RRIRLRPPRLPRPRPRPDPVPRP | -0.0275 |
| RRIRLRPPRLPRPRPRPDQMPRP | -0.0132 |
| RRIRLRPPRLPRPRPRPDQWPRP | -0.158 |
| RRIRLRPPRLPRPRPRPDRLPRP | -0.0156 |
| RRIRLRPPRLPRPRPRPDRRPRP | 0.0766 |
| RRIRLRPPRLPRPRPRPDSYPRP | 0.00388 |
| RRIRLRPPRLPRPRPRPDVFPRP | -0.165 |
| RRIRLRPPRLPRPRPRPECEPRP | 0.147 |
| RRIRLRPPRLPRPRPRPEDWPRP | 0.544 |
| RRIRLRPPRLPRPRPRPEEHPRP | 0.00515 |
| RRIRLRPPRLPRPRPRPEFKPRP | -0.4 |
| RRIRLRPPRLPRPRPRPEFYPRP | 0.0488 |
| RRIRLRPPRLPRPRPRPEGCPRP | 0.191 |
| RRIRLRPPRLPRPRPRPEGQPRP | -0.118 |
| RRIRLRPPRLPRPRPRPEHIPRP | 0.0843 |
| RRIRLRPPRLPRPRPRPEHRPRP | 0.283 |

| Sequence | shrunken log2 fold change |
| --- | --- |
| RRIRLRPPRLPRPRPRPEILPRP | 0.0325 |
| RRIRLRPPRLPRPRPRPELDPRP | 0.273 |
| RRIRLRPPRLPRPRPRPELKPRP | 0.0568 |
| RRIRLRPPRLPRPRPRPELTPRP | 0.067 |
| RRIRLRPPRLPRPRPRPENCPRP | -0.0062 |
| RRIRLRPPRLPRPRPRPENIPRP | -0.519 |
| RRIRLRPPRLPRPRPRPENSPRP | 0.000683 |
| RRIRLRPPRLPRPRPRPERHPRP | 0.27 |
| RRIRLRPPRLPRPRPRPERLPRP | 0.466 |
| RRIRLRPPRLPRPRPRPERNPRP | 0.129 |
| RRIRLRPPRLPRPRPRPERTPRP | 0.098 |
| RRIRLRPPRLPRPRPRPEVGPRP | -0.0231 |
| RRIRLRPPRLPRPRPRPEVWPRP | 0.276 |
| RRIRLRPPRLPRPRPRPEYYPRP | -0.0599 |
| RRIRLRPPRLPRPRPRPFCFPRP | -0.213 |
| RRIRLRPPRLPRPRPRPFDQPRP | 0.0721 |
| RRIRLRPPRLPRPRPRPFFGPRP | 0.246 |
| RRIRLRPPRLPRPRPRPFFNPRP | -0.359 |
| RRIRLRPPRLPRPRPRPFGCPRP | -0.138 |
| RRIRLRPPRLPRPRPRPFGFPRP | -0.15 |
| RRIRLRPPRLPRPRPRPFGKPRP | -0.168 |
| RRIRLRPPRLPRPRPRPFHFPRP | -0.58 |
| RRIRLRPPRLPRPRPRPFHHPRP | -0.147 |
| RRIRLRPPRLPRPRPRPFHSPRP | -0.177 |
| RRIRLRPPRLPRPRPRPFHWPRP | -0.000687 |

| Sequence | shrunken log2 fold change |
| --- | --- |
| RRIRLRPPRLPRPRPRPFIKPRP | -0.66 |
| RRIRLRPPRLPRPRPRPFKVPRP | 0.0321 |
| RRIRLRPPRLPRPRPRPFKWPRP | 0.00989 |
| RRIRLRPPRLPRPRPRPFMAPRP | -0.343 |
| RRIRLRPPRLPRPRPRPFMEPRP | -0.35 |
| RRIRLRPPRLPRPRPRPFNAPRP | -0.154 |
| RRIRLRPPRLPRPRPRPFNFPRP | -0.855 |
| RRIRLRPPRLPRPRPRPFPGPRP | 0.143 |
| RRIRLRPPRLPRPRPRPFPRPRP | -0.163 |
| RRIRLRPPRLPRPRPRPFQLPRP | -0.402 |
| RRIRLRPPRLPRPRPRPFQTPRP | -0.0347 |
| RRIRLRPPRLPRPRPRPFQYPRP | -0.182 |
| RRIRLRPPRLPRPRPRPFRTPRP | -0.0778 |
| RRIRLRPPRLPRPRPRPFSKPRP | -0.456 |
| RRIRLRPPRLPRPRPRPFSRPRP | -0.199 |
| RRIRLRPPRLPRPRPRPFVWPRP | 0.118 |
| RRIRLRPPRLPRPRPRPFYIPRP | -0.865 |
| RRIRLRPPRLPRPRPRPFYLPRP | -0.572 |
| RRIRLRPPRLPRPRPRPGARPRP | 0.369 |
| RRIRLRPPRLPRPRPRPGCEPRP | 0.409 |
| RRIRLRPPRLPRPRPRPGDIPRP | -0.385 |
| RRIRLRPPRLPRPRPRPGEGPRP | -0.036 |
| RRIRLRPPRLPRPRPRPGETPRP | -0.0544 |
| RRIRLRPPRLPRPRPRPGFIPRP | 0.452 |
| RRIRLRPPRLPRPRPRPGGFPRP | 0.176 |

| Sequence | shrunken log2 fold change |
| --- | --- |
| RRIRLRPPRLPRPRPRPGHIPRP | -0.197 |
| RRIRLRPPRLPRPRPRPGHWPRP | 0.279 |
| RRIRLRPPRLPRPRPRPGIQPRP | -0.0773 |
| RRIRLRPPRLPRPRPRPGISPRP | -0.00752 |
| RRIRLRPPRLPRPRPRPGKAPRP | 0.0651 |
| RRIRLRPPRLPRPRPRPGLSPRP | 0.00141 |
| RRIRLRPPRLPRPRPRPGNAPRP | 0.0676 |
| RRIRLRPPRLPRPRPRPGNCPRP | -0.0913 |
| RRIRLRPPRLPRPRPRPGNKPRP | -0.46 |
| RRIRLRPPRLPRPRPRPGNLPRP | -0.137 |
| RRIRLRPPRLPRPRPRPGPEPRP | 0.685 |
| RRIRLRPPRLPRPRPRPGRAPRP | 0.469 |
| RRIRLRPPRLPRPRPRPGRVPRP | 0.242 |
| RRIRLRPPRLPRPRPRPGSKPRP | -0.559 |
| RRIRLRPPRLPRPRPRPGSVPRP | 0.0433 |
| RRIRLRPPRLPRPRPRPGVKPRP | 0.108 |
| RRIRLRPPRLPRPRPRPGWHPRP | 0.13 |
| RRIRLRPPRLPRPRPRPGWMPRP | 0.0923 |
| RRIRLRPPRLPRPRPRPGYAPRP | 0.119 |
| RRIRLRPPRLPRPRPRPGYKPRP | -0.514 |
| RRIRLRPPRLPRPRPRPHATPRP | -0.0435 |
| RRIRLRPPRLPRPRPRPHCQPRP | -0.0416 |
| RRIRLRPPRLPRPRPRPHDKPRP | 0.0709 |
| RRIRLRPPRLPRPRPRPHFCPRP | 0.0717 |
| RRIRLRPPRLPRPRPRPHGSPRP | -0.0692 |

| Sequence | shrunken log2 fold change |
| --- | --- |
| RRIRLRPPRLPRPRPRPHHPPRP | -0.316 |
| RRIRLRPPRLPRPRPRPHHVPRP | -0.272 |
| RRIRLRPPRLPRPRPRPHIEPRP | -0.0305 |
| RRIRLRPPRLPRPRPRPHINPRP | -0.645 |
| RRIRLRPPRLPRPRPRPHIPPRP | -0.664 |
| RRIRLRPPRLPRPRPRPHKLPRP | -0.1 |
| RRIRLRPPRLPRPRPRPHKQPRP | -0.0935 |
| RRIRLRPPRLPRPRPRPHMHPRP | -0.578 |
| RRIRLRPPRLPRPRPRPHMQPRP | -0.556 |
| RRIRLRPPRLPRPRPRPHNGPRP | -0.00962 |
| RRIRLRPPRLPRPRPRPHNRPRP | -0.205 |
| RRIRLRPPRLPRPRPRPHPAPRP | 0.12 |
| RRIRLRPPRLPRPRPRPHPEPRP | 0.0233 |
| RRIRLRPPRLPRPRPRPHPHPRP | -0.0325 |
| RRIRLRPPRLPRPRPRPHPVPRP | 0.0604 |
| RRIRLRPPRLPRPRPRPHQKPRP | -0.0932 |
| RRIRLRPPRLPRPRPRPHQLPRP | -0.25 |
| RRIRLRPPRLPRPRPRPHQNPRP | -0.149 |
| RRIRLRPPRLPRPRPRPHTIPRP | -0.165 |
| RRIRLRPPRLPRPRPRPHVNPRP | -0.105 |
| RRIRLRPPRLPRPRPRPHVRPRP | 0.0652 |
| RRIRLRPPRLPRPRPRPHVVPRP | 0.00383 |
| RRIRLRPPRLPRPRPRPHWAPRP | -0.177 |
| RRIRLRPPRLPRPRPRPHWGPRP | 0.0796 |
| RRIRLRPPRLPRPRPRPHWKPRP | 0.0019 |

| Sequence | shrunken log2 fold change |
| --- | --- |
| RRIRLRPPRLPRPRPRPHYFPRP | -0.404 |
| RRIRLRPPRLPRPRPRPHYQPRP | -0.361 |
| RRIRLRPPRLPRPRPRPIDKPRP | -0.122 |
| RRIRLRPPRLPRPRPRPIEHPRP | -0.31 |
| RRIRLRPPRLPRPRPRPIEKPRP | 0.000506 |
| RRIRLRPPRLPRPRPRPIHKPRP | 0.195 |
| RRIRLRPPRLPRPRPRPIIMPRP | -0.252 |
| RRIRLRPPRLPRPRPRPIKCPRP | -0.152 |
| RRIRLRPPRLPRPRPRPIKLPRP | -0.515 |
| RRIRLRPPRLPRPRPRPIKPPRP | 0.0261 |
| RRIRLRPPRLPRPRPRPILPPRP | -0.0368 |
| RRIRLRPPRLPRPRPRPILVPRP | -0.157 |
| RRIRLRPPRLPRPRPRPIMDPRP | -0.0403 |
| RRIRLRPPRLPRPRPRPIMFPRP | -0.488 |
| RRIRLRPPRLPRPRPRPINAPRP | -0.177 |
| RRIRLRPPRLPRPRPRPINDPRP | -0.35 |
| RRIRLRPPRLPRPRPRPINNPRP | -0.705 |
| RRIRLRPPRLPRPRPRPIQFPRP | -0.0198 |
| RRIRLRPPRLPRPRPRPIQYPRP | 0.147 |
| RRIRLRPPRLPRPRPRPISYPRP | -0.334 |
| RRIRLRPPRLPRPRPRPIVQPRP | -1.06 |
| RRIRLRPPRLPRPRPRPIWHPRP | -0.0382 |
| RRIRLRPPRLPRPRPRPKAEPRP | 0.375 |
| RRIRLRPPRLPRPRPRPKAFPRP | 0.0112 |
| RRIRLRPPRLPRPRPRPKCWPRP | 0.323 |
